Source: patent publication US20240190962A1 (IMMUNOWAKE, published 2024)

The binders below were run against human IL-12 receptor complex (IL-12Rβ1, IL-12Rβ2) (human, UniProt P42701 24-662; Q99665 24-862) (assay: cell-based or functional assay).
Chain of human IL-12 receptor complex (IL-12Rβ1, IL-12Rβ2) (Q99665 24-862, chain 2 of 2, other chains not shown): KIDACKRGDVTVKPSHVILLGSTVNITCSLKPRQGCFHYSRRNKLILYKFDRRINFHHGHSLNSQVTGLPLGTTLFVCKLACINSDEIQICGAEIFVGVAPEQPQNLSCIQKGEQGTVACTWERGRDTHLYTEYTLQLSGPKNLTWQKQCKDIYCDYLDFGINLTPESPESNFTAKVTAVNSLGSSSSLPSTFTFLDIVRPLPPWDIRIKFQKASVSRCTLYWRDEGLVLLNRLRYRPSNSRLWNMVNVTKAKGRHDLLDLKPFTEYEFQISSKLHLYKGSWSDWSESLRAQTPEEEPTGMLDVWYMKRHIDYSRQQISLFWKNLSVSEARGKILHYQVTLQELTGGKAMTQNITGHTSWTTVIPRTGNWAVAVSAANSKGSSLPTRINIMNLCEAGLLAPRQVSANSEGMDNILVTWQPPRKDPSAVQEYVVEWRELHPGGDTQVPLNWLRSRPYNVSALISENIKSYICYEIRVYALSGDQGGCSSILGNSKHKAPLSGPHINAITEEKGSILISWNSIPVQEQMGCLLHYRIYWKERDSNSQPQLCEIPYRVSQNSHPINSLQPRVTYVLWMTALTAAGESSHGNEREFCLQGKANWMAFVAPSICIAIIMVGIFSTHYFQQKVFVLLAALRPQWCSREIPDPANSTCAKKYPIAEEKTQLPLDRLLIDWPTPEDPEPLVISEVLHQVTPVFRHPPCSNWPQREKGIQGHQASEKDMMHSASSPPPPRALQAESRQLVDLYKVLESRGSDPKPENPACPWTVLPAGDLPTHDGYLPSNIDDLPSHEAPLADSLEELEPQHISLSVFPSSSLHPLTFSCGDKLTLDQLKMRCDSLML

Binder | IL-12 biological activity, HEK-IL-12 [%] | IL-12 biological activity, HEK-IL-12-PD-1 (high) [%] | IL-12 biological activity, HEK-IL-12-PD-1 (low) [%] | PBMC (IFN-γ ng/ml) [ng/mL]
IL-12(E59A/F60A)/anti-PD-1(D100N) (other) light: not shown heavy 1: QVQLVESGGGVVQPGRSLRLDCKASGITFSNSGMHWVRQAPGKGLEWVAVIWYDGSKRYYADSVKGRFTISRDNSKNTLFLQMNSLRAEDTAVYYCATNNDYWGQGTLVTVSSASTKGPSVFPLAPSSKSTSGGTAALGCLVKDYFPEPVTVSWNSGALTSGVHTFPAVLQSSGLYSLSSVVTVPSSSLGTQTYICNVNHKPSNTKVDKKVEPKSCDKTHTCPPCPAPEKKGGPSVFLFPPKPKDTLMISRTPEVTCVVVDVSHEDPEVKFNWYVDGVEVHNAKTKPREEQYNSTYRVVSVLTVLHQDWLNGKEYKCKVSNKALPAPIEKTISKAKGQPREPQVYVLPPSREEMTKNQVSLLCLVKGFYPSDIAVEWESNGQPENRYMTWPPVLDSDGSFFLYSKLTVDKSRWQQGNVFSCSVMHEALHNHYTQKSLSLSPGK heavy 2: QVQLVESGGGVVQPGRSLRLDCKASGITFSNSGMHWVRQAPGKGLEWVAVIWYDGSKRYYADSVKGRFTISRDNSKNTLFLQMNSLRAEDTAVYYCATNNDYWGQGTLVTVSSASTKGPSVFPLAPSSKSTSGGTAALGCLVKDYFPEPVTVSWNSGALTSGVHTFPAVLQSSGLYSLSSVVTVPSSSLGTQTYICNVNHKPSNTKVDKKVEPKSCDKPGSGIWELKKDVYVVELDWYPDAPGEMVVLTCDTPEEDGITWTLDQSSEVLGSGKTLTIQVKAAGDAGQYTCHKGGEVLSHSLLLLHKKEDGIWSTDILKDQKEPKNKTFLRCEAKNYSGRFTCWWLTTISTDLTFSVKSSRGSSDPQGVTCGAATLSAERVRGDNKEYEYSVECQEDSACPAAEESLPIEVMVDAVHKLKYENYTSSFFIRDIIKPDPPKNLQLKPLKNSRQVEVSWEYPDTWSTPHSYFSLTFCVQVQGKSKREKKDRVFTDKTSATVICRKNASISVRAQDRYYSSSWSEWASVPCSGGGGSGGGGSGGGGSGGGGSGRNLPVATPDPGMFPCLHHSQNLLRAVSNMLQKARQTLEFYPCTSEEIDHEDITKDKTSTVEACLPLELTKNESCLNSRETSFITNGSCLASRKTSFMMALCLSSIYEDLKMYQVEFKTMNAKLLMDPKRQIFLDQNMLAVIDELMQALNFNSETVPQKSSLEEPDFYKTKIKLCILLHAFRIRAVTIDRVMSYLNASDKTHTCPPCPAPEDEGGPSVFLFPPKPKDTLMISRTPEVTCVVVDVSHEDPEVKFNWYVDGVEVHNAKTKPREEQYNSTYRVVSVLTVLHQDWLNGKEYKCKVSNKALPAPIEKTISKAKGQPREPQVYVYPPSREEMTKNQVSLTCLVKGFYPSDIAVEWESNGQPENNYKTTPPVLDEDGSFALVSKLTVDKSRWQQGNVFSCSVMHEALHNHYTQKSLSLSPGK | < 0.2 | 38 | 33 | 820
IL-12(E59A/F60A)/anti-PD-1(D100G) (other) light: not shown heavy 1: QVQLVESGGGVVQPGRSLRLDCKASGITFSNSGMHWVRQAPGKGLEWVAVIWYDGSKRYYADSVKGRFTISRDNSKNTLFLQMNSLRAEDTAVYYCATNGDYWGQGTLVTVSSASTKGPSVFPLAPSSKSTSGGTAALGCLVKDYFPEPVTVSWNSGALTSGVHTFPAVLQSSGLYSLSSVVTVPSSSLGTQTYICNVNHKPSNTKVDKKVEPKSCDKTHTCPPCPAPEKKGGPSVFLFPPKPKDTLMISRTPEVTCVVVDVSHEDPEVKFNWYVDGVEVHNAKTKPREEQYNSTYRVVSVLTVLHQDWLNGKEYKCKVSNKALPAPIEKTISKAKGQPREPQVYVLPPSREEMTKNQVSLLCLVKGFYPSDIAVEWESNGQPENRYMTWPPVLDSDGSFFLYSKLTVDKSRWQQGNVFSCSVMHEALHNHYTQKSLSLSPGK heavy 2: QVQLVESGGGVVQPGRSLRLDCKASGITFSNSGMHWVRQAPGKGLEWVAVIWYDGSKRYYADSVKGRFTISRDNSKNTLFLQMNSLRAEDTAVYYCATNGDYWGQGTLVTVSSASTKGPSVFPLAPSSKSTSGGTAALGCLVKDYFPEPVTVSWNSGALTSGVHTFPAVLQSSGLYSLSSVVTVPSSSLGTQTYICNVNHKPSNTKVDKKVEPKSCDKPGSGIWELKKDVYVVELDWYPDAPGEMVVLTCDTPEEDGITWTLDQSSEVLGSGKTLTIQVKAAGDAGQYTCHKGGEVLSHSLLLLHKKEDGIWSTDILKDQKEPKNKTFLRCEAKNYSGRFTCWWLTTISTDLTFSVKSSRGSSDPQGVTCGAATLSAERVRGDNKEYEYSVECQEDSACPAAEESLPIEVMVDAVHKLKYENYTSSFFIRDIIKPDPPKNLQLKPLKNSRQVEVSWEYPDTWSTPHSYFSLTFCVQVQGKSKREKKDRVFTDKTSATVICRKNASISVRAQDRYYSSSWSEWASVPCSGGGGSGGGGSGGGGSGGGGSGRNLPVATPDPGMFPCLHHSQNLLRAVSNMLQKARQTLEFYPCTSEEIDHEDITKDKTSTVEACLPLELTKNESCLNSRETSFITNGSCLASRKTSFMMALCLSSIYEDLKMYQVEFKTMNAKLLMDPKRQIFLDQNMLAVIDELMQALNFNSETVPQKSSLEEPDFYKTKIKLCILLHAFRIRAVTIDRVMSYLNASDKTHTCPPCPAPEDEGGPSVFLFPPKPKDTLMISRTPEVTCVVVDVSHEDPEVKFNWYVDGVEVHNAKTKPREEQYNSTYRVVSVLTVLHQDWLNGKEYKCKVSNKALPAPIEKTISKAKGQPREPQVYVYPPSREEMTKNQVSLTCLVKGFYPSDIAVEWESNGQPENNYKTTPPVLDEDGSFALVSKLTVDKSRWQQGNVFSCSVMHEALHNHYTQKSLSLSPGK | < 0.2 | 33 | 17 | 120
IL-12(E59A/F60A)/anti-PD-1(D100R) (other) light: not shown heavy 1: QVQLVESGGGVVQPGRSLRLDCKASGITFSNSGMHWVRQAPGKGLEWVAVIWYDGSKRYYADSVKGRFTISRDNSKNTLFLQMNSLRAEDTAVYYCATNRDYWGQGTLVTVSSASTKGPSVFPLAPSSKSTSGGTAALGCLVKDYFPEPVTVSWNSGALTSGVHTFPAVLQSSGLYSLSSVVTVPSSSLGTQTYICNVNHKPSNTKVDKKVEPKSCDKTHTCPPCPAPEKKGGPSVFLFPPKPKDTLMISRTPEVTCVVVDVSHEDPEVKFNWYVDGVEVHNAKTKPREEQYNSTYRVVSVLTVLHQDWLNGKEYKCKVSNKALPAPIEKTISKAKGQPREPQVYVLPPSREEMTKNQVSLLCLVKGFYPSDIAVEWESNGQPENRYMTWPPVLDSDGSFFLYSKLTVDKSRWQQGNVFSCSVMHEALHNHYTQKSLSLSPGK heavy 2: QVQLVESGGGVVQPGRSLRLDCKASGITFSNSGMHWVRQAPGKGLEWVAVIWYDGSKRYYADSVKGRFTISRDNSKNTLFLQMNSLRAEDTAVYYCATNRDYWGQGTLVTVSSASTKGPSVFPLAPSSKSTSGGTAALGCLVKDYFPEPVTVSWNSGALTSGVHTFPAVLQSSGLYSLSSVVTVPSSSLGTQTYICNVNHKPSNTKVDKKVEPKSCDKPGSGIWELKKDVYVVELDWYPDAPGEMVVLTCDTPEEDGITWTLDQSSEVLGSGKTLTIQVKAAGDAGQYTCHKGGEVLSHSLLLLHKKEDGIWSTDILKDQKEPKNKTFLRCEAKNYSGRFTCWWLTTISTDLTFSVKSSRGSSDPQGVTCGAATLSAERVRGDNKEYEYSVECQEDSACPAAEESLPIEVMVDAVHKLKYENYTSSFFIRDIIKPDPPKNLQLKPLKNSRQVEVSWEYPDTWSTPHSYFSLTFCVQVQGKSKREKKDRVFTDKTSATVICRKNASISVRAQDRYYSSSWSEWASVPCSGGGGSGGGGSGGGGSGGGGSGRNLPVATPDPGMFPCLHHSQNLLRAVSNMLQKARQTLEFYPCTSEEIDHEDITKDKTSTVEACLPLELTKNESCLNSRETSFITNGSCLASRKTSFMMALCLSSIYEDLKMYQVEFKTMNAKLLMDPKRQIFLDQNMLAVIDELMQALNFNSETVPQKSSLEEPDFYKTKIKLCILLHAFRIRAVTIDRVMSYLNASDKTHTCPPCPAPEDEGGPSVFLFPPKPKDTLMISRTPEVTCVVVDVSHEDPEVKFNWYVDGVEVHNAKTKPREEQYNSTYRVVSVLTVLHQDWLNGKEYKCKVSNKALPAPIEKTISKAKGQPREPQVYVYPPSREEMTKNQVSLTCLVKGFYPSDIAVEWESNGQPENNYKTTPPVLDEDGSFALVSKLTVDKSRWQQGNVFSCSVMHEALHNHYTQKSLSLSPGK | < 0.2 | 10 | 3 | 69
